Where no end group is shown, it is not given here. The star is where a group is joined. Palmitoyl = CCCCCCCCCCCCCCCC(=O)*

To fix the notation:
B1: N-terminally palmitoylated MPER peptide (peptide)
peptide: Palmitoyl-DLLELDKWASLWNWFNITNWLWYIK
B2: rmAb 235 IgG1 (antibody, V domains shown)
VH: QVQLQQSGTDLVRPGTSVKVSCKASGYAFTTYFIEWVKQRPGQGLEWIGVINPGSGIPNYNEMFKGKATLTADKSSSTAYLHLSSLTSDDSAVYFCARAPYYYGSSYYYFDVWGAGTTVTVSS
VL: DIVMSQSPSSLAVSVGEKVTMSCKSSQSLLYSSNQKNYLAWYQQKPGQSPKLLIYWASTRDSGVPDRFTGSGSGTDFTLTISSVKAEDLAVYCCQQYYNYPFTFGAGTKLEIK
B3: rmAb 460 IgG1 (antibody, V domains shown)
VH: EVQLQQSGAELVKPGASVKLSCTASGFNIKDTYMHWVKQRPEQGLEWIGRIDPANGNTKYDPKFQGKATITADTSSNTAYLQLSSLTSEDTAVYFCTRSRGYFGNYYFDYWGQGTTLTVSS
VL: QIVLTQSPAVMSASPGERVTMTCSASSSVSYMYWYQQKPRSSPKPWIYLTSNLASGVPARFSGSGSGTSYSLTISSMEAEDAATYYCQQWSSIPLTFGAGTKLELK

Some targets named below: 274; 484; 275; 203.
What all share (assay): SPR; liposome-bound MPER
Assay [1] addresses B1.

For orientation: Kd means the free concentration of one partner at which half of the binding sites on the other are occupied at equilibrium, for simple one-to-one binding. High values mean weaker binding, low ones tighter binding. For the molecule B1, the Kd in the assay with 274 was found to be 63 nM; with 484, 5.5 nM; with 275, 18 nM; with 203, 29 nM.
In assay [1], B2 displayed an equilibrium dissociation constant (Kd) of 11 nM.
On the same count and under the same terms, with B3 the figure was 14 nM.
